# Test results published in article PMC6561789 (Molecular microbiology, 2019).
# Residue numbers refer to the chain shown, from its start. Names may count otherwise.
# B1: HigA antitoxin (Proteus vulgaris, Rts1 plasmid), wild type (natural protein)
# chain: MRQFKVSHPGEMIARDLEDMGVSGRRFAHNIGVTPATVSRLLAGKTALTPSLSIRIAAALGSTPEFWLRLQSNYDLRQLENQIDTSGIVLYGESNEQQQNAQEH
# B2: HigA R40A variant (Proteus vulgaris, Rts1 plasmid) (natural protein)
# chain: B1 chain with R40A
# Experiments:
# AUC = biological target: the molecule itself; experiment: AUC
# SEC = biological target: the molecule itself; experiment: SEC
Protein,stoichiometry N (AUC),stoichiometry N (SEC)
B1,2,–
B2,–,2
